In article PMC2188280 (The Journal of Experimental Medicine, 1987) one finds IC50 and Ka data, which are given here for two molecules.

The labels stand for the following.
B1: CD2, purified, detergent-solubilized (receptor, human (endogenous in Jurkat or SKW3), UniProt P06729 25-351, looked up)
chain: KEITNALETWGALGQDINLDIPSFQMSDDIDDIKWEKTSDKKKIAQFRKEKETFKEKDTYKLFKNGTLKIKHLKTDDQDIYKVSIYDTKGKNVLEKIFDLKIQERVSKPKISWTCINTTLTCEVMNGTDPELNLYQDGKHLKLSQRVITHKWTTSLSAKFKCTAGNKVSKESSVEPVSCPEKGLDIYLIIGICGGGSLLMVFVALLVFYITKRKKQRSRRNDEELETRAHRVATEERGRKPHQIPASTPQNPATSQHPPPPPGHRSQAPSHRPPPPGHRVQHQPQKRPPAPSGTQVHQQKGPPLPRPRVQPKPPHGAAENSLSPSSN
B2: lymphocyte function-associated antigen 3 (LFA-3) on human erythrocytes (ligand, human (endogenous in erythrocytes), UniProt P19256 29-250, looked up)
chain: FSQQIYGVVYGNVTFHVPSNVPLKEVLWKKQKDKVAELENSEFRAFSSFKNRVYLDTVSGSLTIYNLTSSDEDEYEMESPNITDTMKFFLYVLESLPSPTLTCALTNGSIEVQCMIPEHYNSHRGLIMYSWDCPMEQCKRNSTSIYFKMENDLPQKIQCTLSNPLFNTTSSIILTTCIPSSGHSRHRYALIPIPLAVITTCIVLYMNGILKCDRKPDRTNSN

For assay [1], the target named is B2. The assay is described as follows: flow cytometry on cells.
Assay [2] concerns the target B1. The assay is described as follows: flow cytometry on cells.

On to B1, for which the IC50 in assay [1] was about 30 nM. Regarding B2, the Ka in assay [2] was about 3e+07 M⁻¹.
